Test system: human SHSY-5Y cells
Test: Neuroprotection of differentiated SHSY-5Y cells against parkinsonian neurotoxins (CFDA cell viability)
Type: cell-based
Conditions: pre-treatment, rhGDNF 50 ng/ml, CDNF-MDCs 25-250 ng/ml
Protocol: Neuroprotection was tested in the well-established neuronal model of human SHSY-5Y cells (Lopes, F. M.,. et al. (2010) Brain Res. 1337, 85-94) treated with parkinsonian neurotoxins. Human SHSY-5Y cells were grown in 24 well dishes and differentiated into neuron-like cells by treatment with 10 μM retinoic acid (RA) for 7 days (FIG. 8A).
Cell viability was quantified by the CFDA assay as described previously (Sandhu, J. K., et al. (2009) Neurobiol. Dis. 33, 405-414.).
Recombinant human GDNF at 50 ng/ml was used as a positive control.

B1: rhGDNF: Recombinant human GDNF, positive control (protein, UniProt P39905 78-211, looked up)
Glial cell line-derived …: SPDKQMAVLPRRERNRQAAAANPENSRGKGRRGQRGKNRGCVLTAIHLNVTDLGLGYETKEELIFRYCSGSCDAAETTYDKILKNLSRNRRLVSDKVGQACCRPIAFDDDLSFLDDNLVYHILRKHSAKRCGCI
With B1 the “Neuroprotection against thapsigargin (cell viability)” value (1.0 μM thapsigargin ~16 h) was “protected from cell death” and the “Neuroprotection against MPP+ (cell viability)” value (1.0 mM MPP+ ~16 h) was “protected from cell death”.

Source: patent US20250177557A1, “METHODS OF PRODUCING MICROBUBBLE DRUG CONJUGATES, VIRAL GENE THERAPY MICROBUBBLE CONJUGATES AND TARGETED MICROBUBBLES” (priority 2022, published 2025)
